Laboratory results as given in US10030233B2, “Modified P450 reductase with N-terminal deletions and endoplasmic reticulum retention tag” (DE MONTFORT UNIVERSITY, priority 2013, dated 2018).

Key:
[1] = MTT-based cytochrome P450 reductase assay on yeast microsomes; type: biochemical; conditions: relative to hRD = 1; 100 μg yeast microsomes, A610
Source text: The enzyme NADPH-cytochrome P450 reductase mediates the transfer of electrons from NADPH to cytochrome P450, other microsomal proteins and cytochrome c. It also catalyses the reduction of many drugs and other compounds such as potassium ferricyanide, 2,6-dichloroindopheonl, 1,1-diphenyl-2-picrylhydrazyl (DPPH), and mitomycin c. Tetrazolium salts are used extensively in cell proliferation and cytotoxicity assays, enzyme assays, histochemical procedures and bacteriological screening. […] The compound 3-(4,5-dimethylthiazol-2-yl)-2,5-diphenyltetrazolium bromide (MTT) is a monotetrazolium salt. The reduction of MTT is one of the most frequently used methods for measuring cell proliferation and cytotoxicity. Reduction of MTT by P450 reductase has been assessed as a method for monitoring yeast produced recombinant P450 reductase activity and the protocol was developed on the procedure published by Yim S-K, et al (Yim S-K., Y. C.-H. Ahn T., Hung H-C and Pan J-G. A continuous Spectrophotometric assay for NADPH-cytochrome P450 reductase activity using 3-(4,5 Dimethylthiazol-2-yl)-2,5-diphenyltetrazolium Bromide. Journal of Biology and Molecular Biology 38: 366-369, 2005). The principal advantage of this substance is that the reduction of MTT can be assayed directly in the reaction medium by a continuous spectrophotometirc method. The electrons released from NADPH by P450 reductase are transferred to MTT, and then the amounts of reduced MTT is assessed spectrophotometrically by measuring the increase in A610 values that is due to the formation of blue formazan. The extinction coefficient of MTT is 11.3 mM^−1 cm^−1. This method offers the advantages of short analysis time with the use of a relatively cheap commercial substrate. The classical assay uses recombinant cytochrome c as a substrate. […]
Disposable cuvettes were used for this experiment. […] The cuvette was quickly placed into the spectrophotometer together with the blank cuvette and its contents (that contained all components as in the other test cuvette but not the microsomes or cell supernatant) and the increase in the values at 610 nm was measured for a time period of 400 seconds. The electrons released from NADPH by recombinant P450 reductase enzyme were transferred to MTT, and the ability to reduce MTT was assessed spectrophotometrically by measuring the increase in A610 values as a result of the formation of blue formazan. The rate of MTT reduction was calculated from the change in A610 values using an extinction coefficient of 11.3 mM^−1 cm^−1 and the formula, ΔA610/min/11.3*0.1 mg/ml=μmole reduced MTT/min/mg of protein.

yeast cells = experiment: Dihydroethidium assay for ROS detection in yeast cells expressing a P450 reductase; type: cell-based, Saccharomyces cerevisiae; conditions: gene synthesized using yeast-biased codons compared with ΔN1hRD-M gene isolated from human liver cDNA library; FIG. 13
Description: The reactive oxygen species generated in yeast cells due to expression of a P450 reductase were assessed using dihydroethidium fluorescence assay. Reactive oxygen species reacts with dihydroethidium to produce ethidium bromide which binds to the nuclear DNA and emits red fluorescence. Dihydroethidine is one of the best reagents available for measuring intracellular production of reactive oxygen species. After overnight induction of a P450 reductase, the cultures were analysed for induction of reactive oxygen species. The control (wt-hRD) and test (ΔN1hRD-M, ΔN1hRD-HDEL, ΔN2hRD-HDEL) yeast cultures were washed in sterile PBS and then incubated with dihydroethidium (5 μM final concentration) for 30 min. After washing with sterile PBS twice (to remove the extracellular dye), the samples were transferred into 96-well black plates with transparent bottom (COSTAR®). Fluorescence was measured using a BIO-TEK® plate reader. Excitation and emission wavelengths were 260 and 610 nm respectively. The percent induction in the formation of reactive oxygen species was calculated by comparing with cultures where genes were not induced.

CYP = CYP specific activity on co-expression of a CYP with the reductase; type: biochemical; conditions: co-expressed with a CYP
Source text: The activity of cytochrome P450 may be measured by the EROD assay or by other assays known in the art. The expression of cytochrome P450 may be measured using CO-difference spectra as is known in the art and is described in the examples herein.

Row | Molecule | μM of reduced MTT/min/mg of protein (Relative Rates) [1] | ROS produced (yeast cells) | CYP specific activities (CYP)
1 | ΔN1hRD-M: human P450 reductase lacking N-terminal 24 amino acids, with C-terminal 12-amino acid c-myc tag; described in WO 2007/129050; gene SEQ ID NO: 5 (protein, delN1hRD-M) MTDMILFSLIVGLLTYWFLFRKKKEEVPEFTKIQTLTSSVRESSFVEKMKKTGRNIIVFYGSQTGTAEEFANRLSKDAHRYGMRGMSADPEEYDLADLSSLPEIDNALVVFCMATYGEGDPTDNAQDFYDWLQETDVDLSGVKFAVFGLGNKTYEHFNAMGKYVDKRLEQLGAQRIFELGLGDDDGNLEEDFITWREQFWPAVCEHFGVEATGEESSIRQYELVVHTDIDAAKVYMGEMGRLKSYENQKPPFDAKNPFLAAVTTNRKLNQGTERHLMHLELDISDSKIRYESGDHVAVYPANDSALVNQLGKILGADLDVVMSLNNLDEESNKKHPFPCPTSYRTALTYYLDITNPPRTNVLYELAQYASEPSEQELLRKMASSSGEGKELYLSWVVEARRHILAILQDCPSLRPPIDHLCELLPRLQARYYSIASSSKVHPNSVHICAVVVEYETKAGRINKGVATNWLRAKEPAGENGGRALVPMFVRKSQFRLPFKATTPVIMVGPGTGVAPFIGFIQERAWLRQQGKEVGETLLYYGCRRSDEDYLYREELAQFHRDGALTQLNVAFSREQSHKVYVQHLLKQDREHLWKLIEGGAHIYVCGDARNMARDVQNTFYDIVAELGAMEHAQAVDYIKKLMTKGRYSLDVWSSSEQKLISEEDLNGSRL | 2.5 ± 10% | far less ROS | higher CYP specific activities
2 | ΔN2hRD-HDEL: human P450 reductase lacking the 54-amino acid membrane anchoring region, with C-terminal yeast ER retention signal HDEL (protein, delN2hRD-HDEL, human P450 reductase lacking the 54-amino acid membrane anchoring region, with C-terminal yeast ER retention signal HDEL) MTKIQTLTSSVRESSFVEKMKKTGRNIIVFYGSQTGTAEEFANRLSKDAHRYGMRGMSADPEEYDLADLSSLPEIDNALVVFCMATYGEGDPTDNAQDFYDWLQETDVDLSGVKFAVFGLGNKTYEHFNAMGKYVDKRLEQLGAQRIFELGLGDDDGNLEEDFITWREQFWPAVCEHFGVEATGEESSIRQYELVVHTDIDAAKVYMGEMGRLKSYENQKPPFDAKNPFLAAVTTNRKLNQGTERHLMHLELDISDSKIRYESGDHVAVYPANDSALVNQLGKILGADLDVVMSLNNLDEESNKKHPFPCPTSYRTALTYYLDITNPPRTNVLYELAQYASEPSEQELLRKMASSSGEGKELYLSWVVEARRHILAILQDCPSLRPPIDHLCELLPRLQARYYSIASSSKVHPNSVHICAVVVEYETKAGRINKGVATNWLRAKEPAGENGGRALVPMFVRKSQFRLPFKATTPVIMVGPGTGVAPFIGFIQERAWLRQQGKEVGETLLYYGCRRSDEDYLYREELAQFHRDGALTQLNVAFSREQSHKVYVQHLLKQDREHLWKLIEGGAHIYVCGDARNMARDVQNTFYDIVAELGAMEHAQAVDYIKKLMTKGRYSLDVWSHDEL | 3.5 ± 10% | – | –
3 | ΔN1hRD-HDEL: human P450 reductase lacking N-terminal 24 amino acids, with C-terminal yeast ER retention signal HDEL (protein, delN1hRD-HDEL, human P450 reductase lacking N-terminal 24 amino acids, with C-terminal yeast ER retention signal HDEL) MTDMILFSLIVGLLTYWFLFRKKKEEVPEFTKIQTLTSSVRESSFVEKMKKTGRNIIVFYGSQTGTAEEFANRLSKDAHRYGMRGMSADPEEYDLADLSSLPEIDNALVVFCMATYGEGDPTDNAQDFYDWLQETDVDLSGVKFAVFGLGNKTYEHFNAMGKYVDKRLEQLGAQRIFELGLGDDDGNLEEDFITWREQFWPAVCEHFGVEATGEESSIRQYELVVHTDIDAAKVYMGEMGRLKSYENQKPPFDAKNPFLAAVTTNRKLNQGTERHLMHLELDISDSKIRYESGDHVAVYPANDSALVNQLGKILGADLDVVMSLNNLDEESNKKHPFPCPTSYRTALTYYLDITNPPRTNVLYELAQYASEPSEQELLRKMASSSGEGKELYLSWVVEARRHILAILQDCPSLRPPIDHLCELLPRLQARYYSIASSSKVHPNSVHICAVVVEYETKAGRINKGVATNWLRAKEPAGENGGRALVPMFVRKSQFRLPFKATTPVIMVGPGTGVAPFIGFIQERAWLRQQGKEVGETLLYYGCRRSDEDYLYREELAQFHRDGALTQLNVAFSREQSHKVYVQHLLKQDREHLWKLIEGGAHIYVCGDARNMARDVQNTFYDIVAELGAMEHAQAVDYIKKLMTKGRYSLDVWSHDEL | 3 ± 10% | – | –
4 | hRD: wild-type human P450 reductase, full length, control (protein, listed as Homo sapiens) MGDSHVDTSSTVSEAVAEEVSLFSMTDMILFSLIVGLLTYWFLFRKKKEEVPEFTKIQTLTSSVRESSFVEKMKKTGRNIIVFYGSQTGTAEEFANRLSKDAHRYGMRGMSADPEEYDLADLSSLPEIDNALVVFCMATYGEGDPTDNAQDFYDWLQETDVDLSGVKFAVFGLGNKTYEHFNAMGKYVDKRLEQLGAQRIFELGLGDDDGNLEEDFITWREQFWPAVCEHFGVEATGEESSIRQYELVVHTDIDAAKVYMGEMGRLKSYENQKPPFDAKNPFLAAVTTNRKLNQGTERHLMHLELDISDSKIRYESGDHVAVYPANDSALVNQLGKILGADLDVVMSLNNLDEESNKKHPFPCPTSYRTALTYYLDITNPPRTNVLYELAQYASEPSEQELLRKMASSSGEGKELYLSWVVEARRHILAILQDCPSLRPPIDHLCELLPRLQARYYSIASSSKVHPNSVHICAVVVEYETKAGRINKGVATNWLRAKEPAGENGGRALVPMFVRKSQFRLPFKATTPVIMVGPGTGVAPFIGFIQERAWLRQQGKEVGETLLYYGCRRSDEDYLYREELAQFHRDGALTQLNVAFSREQSHKVYVQHLLKQDREHLWKLIEGGAHIYVCGDARNMARDVQNTFYDIVAELGAMEHAQAVDYIKKLMTKGRYSLDVWS | 1 | – | –
